The results in this text go back to the DeepSol protein solubility set.

This data set in a line: soluble on expression in E. coli; label from the status in PepcDB or PDB records.
Turning to “MGSSHHHHHHGKTIFVIVPTNEEQVAFLEALAKQDELNFDWQNPPTEPGQPVVILIPSDMVEWFLEMLKAKGIPFTVYVEEGGSENLYFQGGGGGGSECNISADERMDVPSEDYDVSIMIKAIHEVQDVLTSRQFATFSEVDTEIGKTLKRYEAFGDGFERFHVNLTKDALQSNDLQKSLKDMDKRCQDRLRDCASSQKDQINDILPFIRNTSSILVHGSGNLLALTIACSIQEHEGVRFYICEGRPARKGYPHGSGEQLLEKVLATPEGMRLKDKLHKYCTIVPDSGVSSVMNSVDFVIMGAYCVTEHGGLVHSTGSLQIAIVAAFRNVPCYVLCETFKFAHIFPLSTDDLKQPENGAGEVVPLVEFVPPSMITLIFSEQGIMPPSAVADEMFRFHTAPSAPGKRR”, the “soluble on expression in E. coli” value is “not soluble”.
To “MGSDKIHHHHHHMMQALKIDEEIWQMFPEARFEVLVVKGINNQSKADEYYQELLDRAIEKSQKYIANDVFRDNPVVSEWRTAFTKFKKKKGARASIEALLKRVSQGKSLSPINPLVDIYNSISLEYGVPCGGEDLQKMDGTMHLGVAKGGESFRPLGSDEDEPALPGEVIYYDATGAICRCFNWREAQRTMLTEDTTDAVMVIEAINADQAQRAKSAIEKLKELVESKLNATGEHFTLQAQ” belongs “not soluble”; to “MGSSHHHHHHSSGLVPRGSHMRKVKIGELINSLVSEVEAIDASDRPQGDKTKKIKAAALKYKNALFNDKRKFRGKGLEKRISANTFNSYMSRARKRFDDRLHHNFEKNVIKLSEKYPLYSEELSSWLSMPAASIRQHMSRLQAKLKEIMPLAEDLSNIKIGTKNSEAKINKLANKYPEWQFAISDLNSEDWKDKRDYLYKLFQQGSSLLEDLNNLKVNHEVLYHLQLSSAERTSIQQRWANVLSEKKRNVVVIDYPRYMQAIYDIINKPIVSFDLTTRRGMAPLAFALAALSGRRMIEIMLQGEFSVAGKYTVTFLGQAKKRSEDKGISRKIYTLCDATLFVSLVNELRSCPAAADFDEVIKGYGENDTRSENGRINAILATAFNPWVKTFLGDDRRVYKDSRAIYARIAYEMFFRVDPRWKNVDEDVFFMEILGHDDENTQLHYKQFKLANFSRTWRPNVGEENARLAALQKLDSMMPDFARGDAGVRIHETVKQLVEQDPSIKITNSTLRPFNFSTRLIPRYLEFAADALGQFVGENGQWQLKDEAPAIVLPDEEI”, “soluble”.
To “NKFNTWNDSRGNYWSDYEGSDENGDGIGDSAYAVNPEAGSMDYMPLMEYLHSSPVLPTARFTSDITEGFAPLSVRFKDFSENATSRLWMFGDGNTSDSPSPLHTFFNEGEYIVSLIVSNENDSDSASVTIRA” belongs “soluble”; to “MTTERVLQYPNLLKIVPYLSYSKRMELSKVSPEFRSIHSRLDYSLKTMSFSQDYGAISEEGPIEVGSGILKVESIEYIFEYDENMDQVKIKCLLAPELVRFSNDKSIIRRYFHYYLAASQRIVQHVKLRESDSPFRNLQSLKIPSISWTLNGAREYPQFINFQNHVFEKLELINYESIVLTETQVKSCKHLVLKKETIYQEYTVGNENSAIRNFYCILSNMKLELVLGLNYVESFILLCNRLLLDTLHIGSSVTAIFIKEPLLNVWRTLLERYEDSRGTFMGSGHRKCAILSTDNNIKVAVFENYFGKDSNGKESFTAIKMNNNVEFDA”, “not soluble”; to “MNQCKVMNDGYLEKRSNGLLQLWKKKRCVLSDEGLRLYGCKGDSGKEMRFEQMTTLDCVEYKRGLVYFTIVMNDGKEVDFRCQQEGTAWNAEIALALVRFKNRVAVQTGRNRHLSHLGSCGEGDVEL”, “not soluble”.
For the sequence “MSLASIMFGVFVHALECSRPVGLVQAKLLLWTLTASIMVIILSEEGEVAEQLEFFPVQSPCRGICQSDERGFCRGCFRSRDERFNWNKMSDGEKQEVLRLCRQRLMRKLRANKPASSDEPEQPSLFEGHHHHHH”, the “soluble on expression in E. coli” value was “not soluble”.
For the sequence “MMSYALVLAGNRLITSGALGTNAAAIRGAMRADPNLLTVILPQSLERQPRESRQQLDKVMHLVEKPENDHLPLAEASSLCNQEIIARCQQLICFAFHDSHTLLQTCELAEEQHKVVTLFYFDLEHHHHHH”, the “soluble on expression in E. coli” value was “not soluble”.
To “MGSDKIHHHHHHMLVQGFEEDLAFLGWIALTLGSNPLVPYVPTRPELIPKILELLDLKEDDVFYDLGCGDGRVVIEAVKKTRVKKAVCVETRDDLVKEARKKAEEEGVSDRIEFINNDFFKTPLKDATAVYMYLLTSVNESLKPKLARELRDGTRIVTLDFPIPGWKPVKVETATTGWQRSLYLYVKGVSDRA” belongs “not soluble”; to “MNYKADIGVFGGSGFYSFLENVEEIEMETPYGKPSDKIAIATYEGKRIAFLPRHGKNHQFPPHMIPYRANLYAMKKLGVKKILAPTSSGSLRADIKPGDFVICDQFVDRTTGRKDTFYDGPVTKHISSAHPYCPELRKIAIQVGKDLGITTHEKGTVVVIQGPRFSTVAESRWFSKMGWDVINMTQYPEVYLARELGICYANIALITDYDAGLEGRDDIEPVTEEAVLKVFAENNEKVKNMLFEVIKRIDLENSNCTCCNVDLSGLDL”, “soluble”; to “MGSDKIHHHHHHLSPEDYYGSNDFWNQKSQVEMFMTGIHADLRDKYQMPVTLGEFRSEILISDVTSMGEGVYGPPMTNNLLTKDNTGIDDWYEVYPNIMHINLFIRNVDKEIDYLTGTEKSFYLGQAYGLRAYYYFYLYRTFGGVPLETEPKVTEGSIDITQLYKARSTPEETLEFIKEDINKSEAFFNESDKKMSNQYEWSYHATELLKAKIYMWSAKVTTGLPDDDIAGDHIATLTAVDPNNSDLLTAKKALLNLVNQQFELLPNFADLWTPEGKKNKEIIFALCFNKNELTNWGANWFYNVALFTNATDLDGNKYGPDPLKLLTAGPLRYEYKVPFIEIYDKEDTRLDATFFQYMFEGKIRGACWKKLMGHTDGGTHYYDSDVPVYRYADVLLMLAECENGLGAPDKCAAYINEVRKRAYGDKFEQHKYIAGDYADNEWAILQERDKEFVGEGSRWFDLLRLRDSNGKPFVFSVKAHYGSSLPILTEDKAYMMLWPVNVEVLNGDPEIKQTPGYE”, “not soluble”.
Consider “VRAPVTKVHGGAGSAQRMPLCDKCGSGIVGAVVKARDKYRHPECFVCADCNLNLKQKGYFFVEGELYCETHARART”, for which the “soluble on expression in E. coli” value is recorded as “soluble”.
To “FLDDINEDALPNDRTGYQDTLIWNKLFNYQKDAATGIINKLESYNGCILADSVGLGKTFTALAVIKYYELRNKSVLVLCPKKLADNWLNYSRNLKTNIFARDRFNYDVLCHTDLSRTSGESFGTPLNRINWGNYDLVIIDESHNFRNNDAYKDKETRYQKLMNKVIKEGVKTKVLMLSATPVNNRFNDLRNQLALAYEGDS” belongs “not soluble”; to “SKLVYRNLARNGPGSVKLVPEEEDDLWHAYNLIVPGDTLQSVTVRKVLREMASGGRDAERVRLKLEIVVESVDYDKEGSVLRVRGKNITENDHVKIGQFHTVELELKRQFTLTKELWDWLALDTIQQACDPTASADLAVILMQEGLAHLFLIGRSITVTRARIETSIPRKHGPAIAGYESALKKFFEHVLQVNEKCFLKEMIILMKPIWTDALLNLPTGFPEAY”, “soluble”.
To “QQFHWVNDGYADFDGFLAALSSRKRKAIRKERAQAQGFGGQIRELTGGDLRPEHWDAFWRFYQDTGARKWGSPYLTRAFFDIAHQTMADDMVLVLAERDGIPVAGALNFIGREALFGRYWGCVEHHPCLHFELCYYRAIDWAIAHGLARVEAGAQGEHKLARG” belongs “not soluble”.
To “MIKRNLLVMGLAVLLSACGFQLRGTGTTELAIKELDVSARNAYGETVTQLTRLLTSSGVKVYTGAPYKLILTSENETQRTISFSGSGRSAEYQLTNTLTYEIHGDRDRLLLDNKVSADRSYVHDGNNLTGSDQEASQVRQEMRNDLIQKLMARLQQLTPSRLDELQAKADAVAKAEADALEAAQRIRDETPQQSPVEVPARLEHHHHHH” belongs “not soluble”.
As for “MSAKREFSHITLASTPFKKRIDQNSLKTDSDIEKDTNIAHKCAERFNYNTNLHRKVTLSDRFELAALGYEMKAKPRTIIEKHNDCDEFHFIYRKEKKNDYGTGSPLSAGLSLSNPLPAGRGFLSPAIQNTSNQFTFSGSPRITPQKHTPVSANHKPARSIFDDIPSNIA”, the “soluble on expression in E. coli” value is given as “not soluble”.
To “MAHHHHHHMANAELVDAGCFITQMNELLLIDPLYINCTMTNYCNSYISGKEKLLPRERLNGIYFKNAKPGLWSSFAIRENNQACLKKTSNQETETDAENRNNNNSYNNVRNEMVLSFICFNNTEYMHEYLTVEKVDKLKWEKVKPNESHLRVGQADQYNSTVNIEYKNEKTGIFHHNKNELLPLENYFTNVLTIESGQVGLFCMESIKHSADLLFQKHEMNNISNKEELDNLFNQNMNDLYPWFEKICNLTLSSSVAVVDFIDMPIGCVCLSSSDCVVNYLCEVVRDEVTDEVWAIRVNFLSPLK” belongs “soluble”.
With “MKQSKEEFIKSEGADFPGKTYVDCVLQHVFDFQRNYLLKDMFQVHKAHIVMLTEENLMKKEEAKFILHALKKVEEIPEEQLLYTEQHEDLFFLVEHLISQEAKSDFVSNMHIGRSRNDMGVTMYRMSLRRYVLRLMEHHLLLQESILQLAADHKETIMPAYTHTQPAQPTTFGHYTLAIYDTMQRDLERMKKTYKLLNQSPMGAAALSTTSFPIKRERVADLLGFTNVIENSYDAVAGADYLLEVSSLLMIMMTNTSRWIHDFLLLATKEYDGIAVARPYVQISSIMPQKRNPVSIEHARAITSSAPGEAFTVFQMIHNTPFGEIVDTEDDLQPYLYKGIEKAIRVFCILNAVIRTMKVEEDTLKRRSYKHAITITDFADVLTKNYGIPFRHAHHAASVIANMSLEQKKELHELCFKDVNIYLQEKFKIQLLEKEWEEIISPEAFIQKRNVYGGPSKKEMERMINNRKELFRKEEEVFEEEKQRILQAENDLNMLASNIIES”, the “soluble on expression in E. coli” value is reported as “not soluble”.
For “MEKIAILVDVQNVYYTCREQYGRHFDYNQFWSQVTQNRTVVKANAYAIASKDPQQRQFHHILRGIGFEVMLKPFIQRSDGSAKGDWDVGIALDGYELAQEVDTVVLVSGDGDFEPLVTRIAQRFQVKVEVYGVPKLTAQHLIDVASQFHPIEHRLLL”, the “soluble on expression in E. coli” value is “not soluble”.
Consider “MAHHHHHHMATNPDIETDIPRDVYQFFRGLNRAVERRDAAAMHDLYESQFDALTKNYYMAGHGQFRSWPALRLEQVSSCFRGNHMAELVYSFLFYKHLFMDNRSVRAPDAEGAWKTYSELLPMLKSYELPNWMLWDIFDEFLYQMTVVYQKVFVTEGIWAVPEVSRLLNEVIDNSRLLELVKQPDFLEDIHRGPNTGALSGFYAIVTKSKLNVLLGDYYSALTDLEPLDVYNKGRAVLTRVSPCAVSVFYHIGFSYLMIHRFEDASNAFRRCVTVKLNGRRFSERVQQDAAYMYVCARVLGGMPINNLTSYLDSRKVAAFEDDRESLRTGDEERFRDVFDRCSPKFLTVPPSDGSPVKGSEGRELQARMFRRAVQQQQDIIKLRGYFKVYQNTKMNLLETLLEVDDGYAPLFALKMRSRQLVHDGVTADLLQGVFTSSSEFDCIVQDDNVEVVPSMTFGGIEQKLLNKIKNTQRDIEVAKRKFNQTRNRDEGGNKRKDQRDQKRRPNQQQLHGGVGNNAGSANRSSNNVNRHPRQKMAAQPMTSNLFNRNDN”, for which the “soluble on expression in E. coli” value is recorded as “soluble”.
For “MTVQTSKNPQVDIAEDNAFFPSEYSLSQYTSPVSDLDGVDYPKPYRGKHKILVIAADERYLPTDNGKLFSTGNHPIETLLPLYHLHAAGFEFEVATISGLMTKFEYWAMPHKDEKVMPFFEQHKSLFRNPKKLADVVASLNADSEYAAIFVPGGHGALIGLPESQDVAAALQWAIKNDRFVISLCHGPAAFLALRHGDNPLNGYSICAFPDAADKQTPEIGYMPGHLTWYFGEELKKMGMNIINDDITGRVHKDRKLLTGDSPFAANALGKLAAQEMLAAYAGLEHHHHHH”, the “soluble on expression in E. coli” value is listed as “soluble”.
In the case of “MSHTILLLQPTDNIESRSWSDYENTTECLEGICRVYEEYLKKKVPAQNEITYDISHLFEFIDDLKDLSMLVLDNTTYTYVPHNKQYVKESIYKLMNNRLNNQH”, the “soluble on expression in E. coli” value was “not soluble”.
